Experimental findings from patent US20070092444A1, “Inhibition of inward sodium currents in cancer” (priority 2003, published 2007) are described below.

For data set [1], the target named is T1, ASIC1 (recombinant: in vitro translated in proteoliposomes, expressed in Xenopus oocytes, reconstituted in planar lipid bilayers) (UniProt P78348).
T1 sequence: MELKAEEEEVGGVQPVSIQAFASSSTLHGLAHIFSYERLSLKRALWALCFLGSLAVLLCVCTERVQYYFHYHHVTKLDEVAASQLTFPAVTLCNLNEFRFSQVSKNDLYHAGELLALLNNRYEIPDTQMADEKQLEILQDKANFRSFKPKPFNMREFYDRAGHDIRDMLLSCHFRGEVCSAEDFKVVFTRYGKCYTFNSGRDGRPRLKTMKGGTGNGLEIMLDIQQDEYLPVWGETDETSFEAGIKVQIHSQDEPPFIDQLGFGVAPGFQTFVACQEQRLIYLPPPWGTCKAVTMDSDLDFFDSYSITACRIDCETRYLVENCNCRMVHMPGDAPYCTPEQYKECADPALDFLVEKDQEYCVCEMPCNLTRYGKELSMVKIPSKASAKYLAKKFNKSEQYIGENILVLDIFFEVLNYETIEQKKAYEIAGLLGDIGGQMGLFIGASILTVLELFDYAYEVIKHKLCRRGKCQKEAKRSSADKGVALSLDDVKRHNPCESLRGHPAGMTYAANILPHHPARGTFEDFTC

Data set [2] has as its target T1, ASIC1 (recombinant: in vitro translated in proteoliposomes, expressed in Xenopus oocytes, reconstituted in planar lipid bilayers). Briefly: cell-based or functional assay.
Data set [3] concerns the target ASIC1+ASIC2+γ-hENaC heteromeric channel (co-expressed in Xenopus oocytes; oocyte membrane vesicles in planar lipid bilayers) (human) (UniProt P78348). Briefly: cell-based or functional assay.
The subject of data set [4] is inward Na^+ currents in SK-MG cells. Briefly: Whole-cell patch clamp, SK-MG glioma cells. The note with it: 10 nM peptide. The class given is cell-based, human. On the procedure:
FIGS. 7A-7C show representative whole-cell patch clamp recordings.
The amiloride-sensitive inward Na^+ currents are measured regardless of whether ASIC2 is absent or present (FIGS. 7A-D). Whole-cell patch clamp recordings were obtained from U87-MG, SK-MG, and D54-MG glioma cells in the basal state. […] This inhibition of the inward current occurred regardless of the absence or presence of ASIC2 mRNA (FIG. 7D) (as detected by RT-PCR as described above).
(§1) FIG. 19A show representative whole-cell patch clamp recordings of ZR-75-1 and SKMEL-2 cells in the basal state.

Another data set relates to D54-MG glioma cells. Briefly: Transwell Migration Assay, D54-MG cells. The class given is cell-based, human. The conditions noted are these: 3 h, vitronectin. On the procedure: 5-8 μm polycarbonate Transwell filters were coated on the lower surface with or vitronectin ([…] in PBS). […] of D54MG cells (400,000 cells/ml were added to the upper chamber), in the presence or absence of benzamil, and migration was allowed to proceed for 3 hours. Migration was determined according to standard procedures (120). N-amidino-3,5-diamino-pyrazinecarboxamide was used as a control.
To begin to investigate the role of the inward Na^+ conductance in the invasive behavior of tumor cells, a Transwell Migration Assay was used to assess cell chemotaxis and invasiveness (FIG. 17). D54-MG cells were plated on the upper side of a filter insert perforated with 5-8 μm holes, and induced to migrate through these pores toward the extracellular matrix protein vitronectin (coated on the underside of the filter). Benzamil, at 10, 20, 50, or 100 μM, was added to both chambers at time 0. After a 3 h migration time, cells were fixed, stained with crystal violet, and counted. BSA-coated filter inserts were used as negative controls. […]
Approximately 10,000 cells were added to the upper side of a filter insert perforated with 5-8 μm holes, and induced to migrate through these pores toward the extracellular matrix protein vitronectin (coated on the underside of the filter). […] Cells were counted on an inverted microscope, averaging five fields per Transwell chamber. […]

The subject of the next data set is primary GBM cultures. Briefly: Transwell Migration Assay, primary GBM cultures. The class given is cell-based, human. The conditions noted are these: 3 h, vitronectin. As for the experimental part: Approximately 10,000 cells were added to the upper side of a filter insert perforated with 5-8 μm holes, and induced to migrate through these pores toward the extracellular matrix protein vitronectin (coated on the underside of the filter). PcTX1 or control scrambled PcTX1 peptide was added to each compartment at the same time as the cells. BSA-coated filter inserts were used as negative controls. After 3 h, cells were fixed with 4% paraformaldehyde, and subsequently stained with crystal violet. Cells were counted on an inverted microscope, averaging five fields per Transwell chamber. Four-to-ten chambers were used under each condition.

A further data set concerns U87-MG cells. The data set is described as follows: Transwell Migration Assay, U87-MG cells. The class given is cell-based, human. The conditions noted are these: 3 h, vitronectin.
In data set [5] the test system is constitutive amiloride-sensitive inward Na^+ current in high-grade glioma (GBM) cells. The data set is described as follows: Whole-cell patch clamp, freshly resected and primary cultured high-grade glioma (Grade III/IV, GBM) cells. It counts as cell-based, human. The note with it: 10 nM peptide; freshly resected GBM.
Excerpt: FIGS. 2A-C show representative whole-cell patch clamp recordings.
FIGS. 4A and B show summary I-V curves of freshly resected normal astrocytes (FIG. 4A) and GBM cells (FIG. 4B). Inward currents (−60 mV) were −7.5±1.2 pA (normal) and −43.8±14.5 pA (GBM). Outward currents (+40 mV) averaged 42.2±2.4 pA and 47.2±12.5 pA for normal and GBMs, respectively. FIGS. 4C and D show summary amiloride-sensitive (difference) currents of freshly resected normal astrocytes (FIG. 4C) and GBM cells (FIG. 4D).
A constitutive amiloride-sensitive inward Na^+ conductance has been reported in human high-grade glioma cells. […] These inward Na^+ currents were not present in normal astrocytes or in low-grade astrocytomas (e.g., pilocytic astrocytomas). However, the composition of the channels responsible for the inward Na^+ conductance has not been reported. FIGS. 2A-C show representative whole cell patch-clamp measurements on tissue derived from a freshly resected human glioblastoma multiforme (GBM; WHO grade IV), normal astrocytes obtained from patients undergoing surgery for intractable epilepsy, and primary cultures of different grade glial tumors. […] However, there was no significant inward Na^+ current in normal astrocytes and Grades I and II astrocytoma cells (FIG. 2C).
Summary current-voltage (I-V) curves are presented for normal astrocytes and GBM cells in FIG. 4A and FIG. 4B, respectively, while difference I-V curves for normal astrocytes and GBM cells are presented in FIG. 4C and FIG. 4D, respectively. The GBM cells are depolarized by an average of 31 mV compared to the normal astrocytes under these recording conditions. The depolarized zero current membrane potential is due to the presence of an enhanced Na^+ conductance as is shown in the difference I-V curves.
as §1
A general note: Patch clamp records ionic current or voltage across a cell membrane.

The target in data set [6] is T2, ASIC1 (Homo sapiens, UniProt P78348).
T2 sequence (P78348 1-528): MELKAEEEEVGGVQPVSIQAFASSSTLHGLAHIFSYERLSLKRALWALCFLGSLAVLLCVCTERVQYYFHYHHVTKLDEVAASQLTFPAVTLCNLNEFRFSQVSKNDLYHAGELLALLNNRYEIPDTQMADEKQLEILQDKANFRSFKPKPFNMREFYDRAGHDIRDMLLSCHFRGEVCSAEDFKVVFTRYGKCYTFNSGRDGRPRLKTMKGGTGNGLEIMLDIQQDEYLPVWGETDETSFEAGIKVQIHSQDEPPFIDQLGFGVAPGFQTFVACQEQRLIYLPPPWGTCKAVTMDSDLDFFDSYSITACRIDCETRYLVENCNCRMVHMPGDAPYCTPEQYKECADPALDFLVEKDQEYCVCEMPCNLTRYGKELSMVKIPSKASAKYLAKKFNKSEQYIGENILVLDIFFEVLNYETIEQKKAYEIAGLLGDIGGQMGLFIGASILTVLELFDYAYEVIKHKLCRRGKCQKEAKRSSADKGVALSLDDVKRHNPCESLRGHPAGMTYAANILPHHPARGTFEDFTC
Briefly: Acid-activated currents in voltage-clamped Xenopus oocytes expressing ASIC1. The class given is cell-based. The note with it: 1 nM peptide (FIG. 20); pHo 4.0; −60 mV.
Excerpt: FIGS. 8A-C show acid-activated ASIC currents in Xenopus oocytes. ASIC 2 (FIG. 8A), ASIC1 (FIG. 8B) and the combination of ASIC2 and ASIC1 (FIG. 8C) were examined. […] Each oocyte served as its own control.
(§2) Membrane potential was held at −60 mV, and the pHo was step decreased to 4.0 for 10 s, and then returned to 7.4 for 30 s before repeating the sequence.
Xenopus oocytes were used to express ASIC1 and ASIC2 mRNA individually and in combination. Oocyte preparation, cRNA injection, and two-electrode voltage clamp recordings were performed as described (33,67-69).
as §2

Data set [7] concerns the target T2, ASIC1. The data set is described as follows: Wild-type ASIC1 in planar lipid bilayers, single channel recording. It counts as biochemical. The conditions noted are these: PKC isoforms. As for the experimental part: An expanded time scale is shown below each trace.
Wild-type ASIC1 incorporated into planar lipid bilayers at neutral pH or at acidic extracellular pH was also examined.
as §2
Control single channel were record for ASIC1 containing channels in bilayers bathed with symmetrical 100 mM NaCl, 10 mM MOPS, pH 6.2. Holding potential was +100 mV referred to the virtually grounded trans chamber. For illustration purposes, data shown were digitally filtered at 100 Hz using pCLAMP software (Axon Instruments) subsequent to acquisition of the analog signal filtered at 300 Hz with an 8-pole Bessel filter before acquisition at 1 ms per point. An expanded time scale is shown below each trace (FIG. 21).
Representative dwell-time histograms were constructed following the events analyses performed using pCLAMP software (Axon Instruments) on single channel recordings of 10 min in duration filtered at 300 Hz with an 8-pole Bessel filter before acquisition at 1 ms per point using pCLAMP software and hardware. The event detection thresholds were 50% in amplitude of transition between closed and open states, and 3 ms in duration. Closed and open time constants shown were determined by fitting the closed and open time histograms to the probability density function (Sigworth and Sine, 1987), and using the Simplex least square routine of pSTAT. Number of bins per decade in all histograms was 16.

Turning to PKC holoenzyme, in [1], the “ASIC1 activity in planar lipid bilayers” value was “PKC holoenzyme or the combination of PKCβI and PKCβII isoforms inhibited ASIC1”; the “in vitro phosphorylation of ASIC1” value was “PKC holoenzyme, PKCβI, PKCβII, PKCδ, PKCε, and PKCζ phosphorylated ASIC1 in vitro”.

As to PKCβI, in [1], the “ASIC1 activity in planar lipid bilayers (PKCβI and PKCβII added in combination)” value was “PKC holoenzyme or the combination of PKCβI and PKCβII isoforms inhibited ASIC1”; the “in vitro phosphorylation of ASIC1” value was “PKC holoenzyme, PKCβI, PKCβII, PKCδ, PKCε, and PKCζ phosphorylated ASIC1 in vitro”.

On to PKCβII, for which, in [1], the “ASIC1 activity in planar lipid bilayers (PKCβI and PKCβII added in combination)” value is “PKC holoenzyme or the combination of PKCβI and PKCβII isoforms inhibited ASIC1”; the “in vitro phosphorylation of ASIC1” value is “PKC holoenzyme, PKCβI, PKCβII, PKCδ, PKCε, and PKCζ phosphorylated ASIC1 in vitro”.

In the case of PKCδ, in data set [1], the “in vitro phosphorylation of ASIC1” value is “PKC holoenzyme, PKCβI, PKCβII, PKCδ, PKCε, and PKCζ phosphorylated ASIC1 in vitro”.

For PKCε, in data set [1], the “ASIC1 activity in planar lipid bilayers” value is “Neither PKCε, PKCζ, nor their combination had any effect on ASIC1 activity in bilayers”; the “in vitro phosphorylation of ASIC1” value is “PKC holoenzyme, PKCβI, PKCβII, PKCδ, PKCε, and PKCζ phosphorylated ASIC1 in vitro”.

For the molecule PKCε (enzyme), the reversal of the PKCβI+PKCβII inhibition of ASIC1 activity in bilayers (PKCε and PKCζ in combination) in data set [2] was 5 fold excess.

For the molecule Syntaxin 1A GST fusion protein, the decrease in channel open probability (Po) in planar lipid bilayers, 25 µM syntaxin 1A in the cis chamber in data set [3] came out at 40%.

On to “scrambled PcTX1 control peptide: 40mer scrambled control peptide having the same amino acid content as PcTX1; SEQ ID NO: 3 (VLEPCKWGFRTCKGEDINCPKVWTRERSKCDCEVKRCHGP; control peptide)”, for which the “block of constitutive inward Na^+ current” value in [4] and in [5] was “unaffected” throughout. The “diminished ability to migrate through the filter” value in the data set with D54-MG glioma cells, in the data set on primary GBM cultures and in the data set on U87-MG cells was “without effect” throughout. In addition, the “block of acid-induced inward currents” value with ASIC1 [6] is given as “without effect”.

B1: PKCε: PKC isoform (protein, UniProt Q02156 1-737, looked up)
Protein kinase C epsilon type: MVVFNGLLKIKICEAVSLKPTAWSLRHAVGPRPQTFLLDPYIALNVDDSRIGQTATKQKTNSPAWHDEFVTDVCNGRKIELAVFHDAPIGYDDFVANCTIQFEELLQNGSRHFEDWIDLEPEGRVYVIIDLSGSSGEAPKDNEERVFRERMRPRKRQGAVRRRVHQVNGHKFMATYLRQPTYCSHCRDFIWGVIGKQGYQCQVCTCVVHKRCHELIITKCAGLKKQETPDQVGSQRFSVNMPHKFGIHNYKVPTFCDHCGSLLWGLLRQGLQCKVCKMNVHRRCETNVAPNCGVDARGIAKVLADLGVTPDKITNSGQRRKKLIAGAESPQPASGSSPSEEDRSKSAPTSPCDQEIKELENNIRKALSFDNRGEEHRAASSPDGQLMSPGENGEVRQGQAKRLGLDEFNFIKVLGKGSFGKVMLAELKGKDEVYAVKVLKKDVILQDDDVDCTMTEKRILALARKHPYLTQLYCCFQTKDRLFFVMEYVNGGDLMFQIQRSRKFDEPRSRFYAAEVTSALMFLHQHGVIYRDLKLDNILLDAEGHCKLADFGMCKEGILNGVTTTTFCGTPDYIAPEILQELEYGPSVDWWALGVLMYEMMAGQPPFEADNEDDLFESILHDDVLYPVWLSKEAVSILKAFMTKNPHKRLGCVASQNGEDAIKQHPFFKEIDWVLLEQKKIKPPFKPRIKTKRDVNNFDQDFTREEPVLTLVDEAIVKQINQEEFKGFSYFGEDLMP
Consider B1, for which the “effect on ASIC1 activity in bilayers” value in the data set with ASIC1 [7] is given as “Neither PKCε, PKCζ, nor their combination had any effect”.
